Assay results: patent US5683890A, “Bacteriocins from Streptococcus thermophilus” (Nestec S.A., priority 1993, dated 1997)

B1: thermophilin 1: first bacteriocin from S. thermophilus CNCM I-1351, sequence SEQ ID NO: 1, found in fraction 15 (protein)
chain: YSGKDCLKDMGGYALAGAGSGALWGAPAGGVGALPGAFVGAHVGAIAGGFACMGGMIGNKFN

system: S. thermophilus strain Sfi3 (typical indicator); assay: Agar well test, antibacterial activity in arbitrary units; format: cell-based, Streptococcus thermophilus; details: Pep RPC fractions 15 and 21
Protocol: In order to do this, 35 ml of M 17 medium are poured into a Petri dish and 1% sucrose and 1.5% agar are added thereto.
5 ml of M 17 medium to which 1% sucrose and 0.75% agar are added are inoculated with 5 μl of a culture, prepared during the previous night, of a strain of S. thermophilus which is typically sensitive to the present bacteriocin (typical indicator), in this case the strain Sfi3 for example.
The 5 ml are poured over the 35 ml and left to dry for 15 min under a laminar flow. Holes of 5 mm in diameter are punched in the culture medium.
The test samples are poured into the holes, in an amount of 70 μl per hole. The incubation is carried out for 6 h under anaerobic conditions at 42° C. During this incubation, the typical indicator strain has grown and inhibition halos are visible.

Molecule	antibacterial activity of purified peptide fractions
thermophilin 2: second bacteriocin from S. thermophilus CNCM I-1351, sequence SEQ ID NO: 2, predominant in fraction 21 (QINWGSVVGHCIGGAIIGGAFSGGAAAGVGCLVGSGKAIINGL)	antibacterial activity
B1	antibacterial activity

target: standard crude extract of bacteriocin from the culture supernatant of S. thermophilus CNCM I-1351; assay: not given; details: not given

Molecule	Inactivation (mm): diameter of the inhibition halo in the agar well test after incubation with the enzyme [mm]
Catalase (SIGMA C-10) (enzyme)	14
Ficin (SIGMA P-3266) (enzyme)	0
Lipase (SIGMA L-0382) + protease inhibitors (enzyme)	14
Nagarse (SIGMA P-4789) (enzyme)	0
Pepsin (SIGMA P-700) (enzyme)	0
Pronase E (SIGMA P-8038) (enzyme)	0
Proteinase K (MERCK 1000 144) (from UniProt P06873) (enzyme)	0
Trypsin (SIGMA T-8128) (enzyme)	0
α-amylase (SIGMA λ-0521) (enzyme)	14
α-chymotrypsin (SIGMA C-7762) (enzyme)	0
